According to patent US20180346602A1:
Substitutions are numbered along the chain they refer to.

B1: anti-variant (human) Fc-region antibody M1.3.17 (antibody, V domains shown)
VH: EVKLLESGGGLVQPGGSLKLSCAASGIDFRRYWMNWVRQAPGKGLEWIGEIDPDSSTINYTPSLKDKFIISRDNAKNTMYLQMRKVRSEDTALYYCARPYDYGAWFAYWGQGTLVTVSA
VL: QAVVTQESALTTSPGETVTLTCRSTTGAVTTSNYANWVQEKPDHLFTGLIGGTNKRAPGVPARFSGSLIGDKAALTITGAQTEDEAIYFCALWYSDHWVFGGGTKLTVL
B2: anti-variant (human) Fc-region antibody M1.7.24 (antibody, V domains shown)
VH: B1 VH with I27F, R30S, D52T, M79L, R84I, A97V, Y108S
VL: B1 VL with T25S, D96N
B3: anti-AAA variant Fc-region antibody M1.6.22 (antibody, V domains shown)
VH: EVQLVESGGDLVKPGGSLKLSCAASGFTFSSYGMSWVRQTPDKRLEWVATISSGGSYIYYPDSVKGRFTISRDNAKNTLYLQMSSLKSEDTAMYYCARLGMITTGYAMDYWGQGTSVTVSS
VL: DVLMTQTPLSLPVSLGDQASISCRSSQTIVHSTGHTYLEWFLQKPGQSPKLLIYKVSNRFSGVPDRFSGSGSGTDFTLKISRVEAEDLGVYYCFQGSHVPYTFGGGTKLEIK

Legend:
[1] = target: anti-IGF-1R antibody (IgG1 subclass with mutations I253A/H310A/H435A) [IgG part: P01857]; assay: sandwich ELISA assay A; capture M1.7.10-Bi; antibody 3 at 25 ng/mL
[2] = target: anti-VEGF/ANG2 antibody (IgG1 subclass with mutations P329G/L234A/L235A/I253A/H310A/H435A) [IgG part: P01857]; assay: sandwich ELISA assay E; tracer M1.7.10-Dig; analyte 1) at 12.5 ng/mL
[3] = target: anti-VEGF/ANG2 antibody (wild-type IgG1 subclass) [IgG part: P01857]; assay: sandwich ELISA assay A; capture M1.7.10-Bi; antibody 5 at 2 ng/mL
[4] = target: anti-P-Selectin antibody (IgG4 subclass with mutations S228P/L235E) [IgG part: P01861]; assay: sandwich ELISA assay A; capture M1.7.10-Bi; antibody 4 at 25 ng/mL
[5] = target: anti-VEGF/ANG2 antibody (IgG1 subclass with mutations P329G/L234A/L235A/I253A/H310A/H435A) [IgG part: P01857]; assay: sandwich ELISA assay E; tracer M1.7.10-Dig; analyte 1) at 50 ng/mL
[6] = target: anti-Dig antibody (IgG1 subclass with mutations P329G/L234A/L235A) [IgG part: P01857]; assay: sandwich ELISA assay D; tracer M1.7.10-Dig; analyte conc. not printed (row 3 of 8)
[7] = target: anti-Dig antibody (IgG1 subclass with mutations P329G/L234A/L235A) [IgG part: P01857]; assay: sandwich ELISA assay D; tracer M1.19.31-Dig; analyte conc. not printed (row 1 of 8)
[8] = target: anti-VEGF/ANG2 antibody (IgG1 subclass with mutations P329G/L234A/L235A) [IgG part: P01857]; assay: sandwich ELISA assay E; tracer M1.7.10-Dig; analyte 2) at 6.25 ng/mL
[9] = target: anti-IGF-1R antibody (IgG1 subclass with mutations I253A/H310A/H435A) [IgG part: P01857]; assay: sandwich ELISA assay A; capture M1.7.10-Bi; antibody 3 at 0 ng/mL (blank)
[10] = target: anti-Dig antibody (IgG1 subclass with mutations P329G/L234A/L235A) [IgG part: P01857]; assay: sandwich ELISA assay D; tracer M1.19.31-Dig; analyte conc. not printed (row 5 of 8)
[11] = target: anti-VEGF/ANG2 antibody (IgG1 subclass with mutations P329G/L234A/L235A) [IgG part: P01857]; assay: sandwich ELISA assay A; capture M1.7.10-Bi; antibody 2 at 2 ng/mL
[12] = target: target antibodies; assay: depletion of target antibody from sample; concentration before depletion 30.00 µg/mL
[13] = target: anti-Dig antibody (IgG1 subclass with mutations P329G/L234A/L235A) [IgG part: P01857]; assay: sandwich ELISA assay D; tracer M1.19.31-Dig; analyte conc. not printed (row 3 of 8)
[14] = target: target antibodies; assay: depletion of target antibody from sample; concentration before depletion 1000.00 µg/mL
[15] = target: anti-VEGF/ANG2 antibody (IgG1 subclass with mutations P329G/L234A/L235A) [IgG part: P01857]; assay: sandwich ELISA assay A; capture M1.7.10-Bi; antibody 2 at 6 ng/mL
[16] = target: anti-Dig antibody (IgG1 subclass with mutations P329G/L234A/L235A) [IgG part: P01857]; assay: sandwich ELISA assay D; tracer M1.7.10-Dig; analyte conc. not printed (row 4 of 8)
[17] = target: anti-VEGF/ANG2 antibody (IgG1 subclass with mutations P329G/L234A/L235A) [IgG part: P01857]; assay: sandwich ELISA assay E; tracer M1.7.10-Dig; analyte 2) at 50 ng/mL
[18] = target: anti-VEGF/ANG2 antibody (IgG1 subclass with mutations P329G/L234A/L235A/I253A/H310A/H435A) [IgG part: P01857]; assay: sandwich ELISA assay E; tracer M1.7.10-Dig; analyte 1) at 3.124 ng/mL
[19] = target: anti-VEGF/ANG2 antibody (wild-type IgG1 subclass) (human) [IgG part: P01857]; assay: sandwich ELISA assay B; capture on SA plate; tracer M1.7.10-Dig; analyte 3 ng/mL
[20] = target: anti-VEGF/ANG2 antibody (wild-type IgG1 subclass) (human) [IgG part: P01857]; assay: sandwich ELISA assay C; capture on SA plate; tracer FcγRI-Dig; analyte 50 ng/mL
[21] = target: anti-VEGF/ANG2 antibody (wild-type IgG1 subclass) (human) [IgG part: P01857]; assay: sandwich ELISA assay C; capture on SA plate; tracer FcγRI-Dig; analyte 13 ng/mL
[22] = target: anti-VEGF/ANG2 antibody (wild-type IgG1 subclass) (human) [IgG part: P01857]; assay: sandwich ELISA assay C; capture on SA plate; tracer FcγRI-Dig; analyte 2 ng/mL
[23] = target: anti-VEGF/ANG2 antibody (wild-type IgG1 subclass) (human) [IgG part: P01857]; assay: sandwich ELISA assay C; capture on SA plate; tracer FcγRI-Dig; analyte 6 ng/mL
[24] = target: anti-VEGF/ANG2 antibody (wild-type IgG1 subclass) (human) [IgG part: P01857]; assay: sandwich ELISA assay B; capture on SA plate; tracer M1.7.10-Dig; analyte 2 ng/mL
[25] = target: anti-VEGF/ANG2 antibody (wild-type IgG1 subclass) (human) [IgG part: P01857]; assay: sandwich ELISA assay C; capture on SA plate; tracer FcγRI-Dig; analyte 3 ng/mL

| Binder | signal [OD405 nm] [1] [OD405 nm] | signal [OD405 nm] [2] [OD405 nm] | signal [OD405 nm] [3] [OD405 nm] | signal [OD405 nm] [4] [OD405 nm] | signal [OD405 nm] [5] [OD405 nm] | signal 10% cynomolgus serum [OD405 nm] [6] [OD405 nm] | signal 10% human serum [OD405 nm] [6] [OD405 nm] | signal buffer [OD405 nm] [6] [OD405 nm] | signal 10% cynomolgus serum [OD405 nm] [7] [OD405 nm] | signal 10% human serum [OD405 nm] [7] [OD405 nm] | signal buffer [OD405 nm] [7] [OD405 nm] | signal [OD405 nm] [8] [OD405 nm] | signal [OD405 nm] [9] [OD405 nm] | signal 10% cynomolgus serum [OD405 nm] [10] [OD405 nm] | signal 10% human serum [OD405 nm] [10] [OD405 nm] | signal buffer [OD405 nm] [10] [OD405 nm] | signal [OD405 nm] [11] [OD405 nm] | concentration after depletion [12] [µg/mL] | recovery [%] [12] [%] | signal [OD405 nm] [15] [OD405 nm] | other results |
| --- | --- | --- | --- | --- | --- | --- | --- | --- | --- | --- | --- | --- | --- | --- | --- | --- | --- | --- | --- | --- | --- |
| B1 | 0.043 | 1.09 | 0.034 | 0.037 | 1.95 | 0.485 | 2.51 | 0.037 | 1.87 | 2.58 | 0.05 | 0.577 | 0.04 | 0.105 | 1.71 | 0.036 | 0.669 | 0.008 | 0.027 | 1.99 | signal 10% cynomolgus serum [OD405 nm] [13]: 0.357 OD405 nm; signal 10% human serum [OD405 nm] [13]: 1.84 OD405 nm; signal buffer [OD405 nm] [13]: 0.04 OD405 nm; concentration after depletion [14]: 0.0169 µg/mL; recovery [%] [14]: 0.002%; signal 10% cynomolgus serum [OD405 nm] [16]: 0.194 OD405 nm; signal 10% human serum [OD405 nm] [16]: 2.48 OD405 nm; signal buffer [OD405 nm] [16]: 0.032 OD405 nm; signal [OD405 nm] [17]: 1.89 OD405 nm; signal [OD405 nm] [18]: 0.383 OD405 nm |
| B2 | 0.047 | 1.06 | 0.038 | 0.048 | 1.94 | 0.575 | 2.48 | 0.039 | 2.25 | 2.5 | 0.054 | 0.528 | 0.049 | 0.078 | 1.33 | 0.033 | 1.13 | – | – | 2.24 | signal [OD405 nm] [19]: 0.033 OD405 nm; signal [OD405 nm] [20]: 0.066 OD405 nm; signal [OD405 nm] [21]: 0.057 OD405 nm; signal [OD405 nm] [22]: 0.058 OD405 nm; signal [OD405 nm] [23]: 0.057 OD405 nm; signal [OD405 nm] [24]: 0.034 OD405 nm; signal 10% cynomolgus serum [OD405 nm] [13]: 0.438 OD405 nm; signal 10% human serum [OD405 nm] [13]: 1.6 OD405 nm; signal buffer [OD405 nm] [13]: 0.045 OD405 nm; signal 10% cynomolgus serum [OD405 nm] [16]: 0.223 OD405 nm; signal 10% human serum [OD405 nm] [16]: 2.46 OD405 nm; signal buffer [OD405 nm] [16]: 0.034 OD405 nm; signal [OD405 nm] [17]: 1.8 OD405 nm; signal [OD405 nm] [18]: 0.363 OD405 nm; signal [OD405 nm] [25]: 0.053 OD405 nm |
| B3 | 2.51 | – | 0.047 | 0.057 | – | – | – | – | – | – | – | – | 0.046 | – | – | – | 0.047 | 0.0054 | 0.018 | 0.044 | signal [OD405 nm] [19]: 0.037 OD405 nm; signal [OD405 nm] [20]: 0.067 OD405 nm; signal [OD405 nm] [21]: 0.07 OD405 nm; signal [OD405 nm] [22]: 0.077 OD405 nm; signal [OD405 nm] [23]: 0.064 OD405 nm; signal [OD405 nm] [24]: 0.036 OD405 nm; concentration after depletion [14]: 0.0163 µg/mL; recovery [%] [14]: 0.002%; signal [OD405 nm] [25]: 0.069 OD405 nm |
